Source: patent publication US20120294945A1
Ends that are not written are not given here. HA = hyaluronic acid (HA-TBA), bound to the peptide's terminal amine

Molecular target: Flt1-Fc (R&D systems, Minneapolis, Minn.) (UniProt P17948)
Test: competition ELISA, VEGF165-coated plate, 500 ng/mL Flt1-Fc, conjugate at rising peptide concentration

Chain of Flt1-Fc (R&D systems, Minneapolis, Minn.) (P17948 27-756 limits assumed): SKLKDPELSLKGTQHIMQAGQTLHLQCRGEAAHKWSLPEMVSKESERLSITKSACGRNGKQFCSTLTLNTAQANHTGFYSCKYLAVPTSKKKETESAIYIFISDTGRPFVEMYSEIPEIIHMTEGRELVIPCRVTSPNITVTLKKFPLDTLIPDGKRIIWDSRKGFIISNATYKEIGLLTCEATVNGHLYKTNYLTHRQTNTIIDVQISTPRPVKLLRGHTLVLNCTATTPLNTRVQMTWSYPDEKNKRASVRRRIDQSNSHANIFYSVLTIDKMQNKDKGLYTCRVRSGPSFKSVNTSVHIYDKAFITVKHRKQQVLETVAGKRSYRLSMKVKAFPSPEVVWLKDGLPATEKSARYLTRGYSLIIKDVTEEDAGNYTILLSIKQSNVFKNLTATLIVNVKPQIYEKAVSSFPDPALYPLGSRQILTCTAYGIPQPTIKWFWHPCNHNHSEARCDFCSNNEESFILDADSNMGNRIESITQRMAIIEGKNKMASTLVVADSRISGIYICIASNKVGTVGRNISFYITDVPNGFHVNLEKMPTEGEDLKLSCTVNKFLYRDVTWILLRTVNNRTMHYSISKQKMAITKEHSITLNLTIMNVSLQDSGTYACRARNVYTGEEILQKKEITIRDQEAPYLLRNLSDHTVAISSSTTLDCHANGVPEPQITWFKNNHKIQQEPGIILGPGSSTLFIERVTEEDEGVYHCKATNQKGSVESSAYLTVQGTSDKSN

inhibition of the bonding between VEGF165 and Flt1-Fc (luminescence, positive control = 100%): 32%
Binder: {HA}-GGNQWFI (also: 20 peptides conjugated per HA-TBA molecule) [hyaluronic acid-peptide conjugate with a lower peptide content of Preparation Example 3 (HA-GGNQWFI)]
